experiment: label from the status in PepcDB records

Protein production, failed:
MSQSSKARLSTDPTVFEAVLNNHTPMMQQYLRIKAQHPDMLMFYRMGDFYELFFDDAEKAAKLLDITLTRRGTSAGEPIKMAGVPYHAAEQYLAKLVKLGESVVICEQVGDPATSKGPVERQVTRIITPGTLTDAALLEDKRDSALLALLVHESTLGLAWLNLAAGQFSVMETSVNNLTAELERLKPAEILLPESLNLAGINDRVIQEKLCVKHLPAWQFDTAAAVRNLSRQFGTHDLSGFGCEDLDVSLGAASALLDYTRLTQGASIGHIKGLRVEREDTYLRMDATTRRNLEISETIRGDAAPTLLSLLDTCSTNMGSRLLCHWLHHPLRDRGLIQNRLNGVSFLMGEAGSGPCLSVRDCLKRVTDIERITARIALKSARPRDLSGLRDSLKRLPAVNNAVAGTATTSSGGSDVSAHVAALIHSMAPDNALVALLEKSLKEEPEVMLRTGGVIADGYDAELDELRAIHNNCDEFLLQLETREKARTGIANLKVEYNRLHGFYIEVTHAHTEKIPDDYRRRQTLKNAERYITPELKAFEEKALSAQSRALEREKLLYGELLDMLSQYIDHLQQVARSVAELDVLATFAERALALDYSLPLFTSDSVIEIQAGRHPVVEKQVDSFIANDVQLGARTGGRRQMLVITGPNMGGKSTYMRQVALIALLAHCGSFVPARSALIGPLDQLFTRIGASDDLAGGRSTFMMEMTEAANILHNATAQSLVLMDEVGRGTSTFDGLALAFAIARYLLEKNRSYTLFATHYFELTRLAEEFAQVANVHLRAVEHKHHIVFLHAVNEGPASQSYGLQVAALAGVPDPVIRTARRYLLKLEQEALSNQPQGDLFSRDDLFWKQDRMPEGSVDKNDSAPEHPVLALLRTIVPDDLSPKQALEQLYGLKKAAEKE
MSQTPSLAQLQPADAFLRRHLGPDPAEQQAMLAFLGVSTRAELIVQTVPPAIRLNRPLELPAALDEQAALARLRGYAGLNQRWTSLIGMGYYGTVTPSVILRNVLENPGWYTAYTPYQPEIAQGRLEALLNFQQLTIDLTGLDLASASLLDEATAAAEAMALARRVAKARSNRFFVDAHCHPQTVSVLRTRAEAFGFELVVDEPDNLAAHAVFGALLQYPDSRGEIRDLRPLIEALHGQQALACVASDLLALLLLTPPGELGADVVLGSAQRFGVPMGYGGPHAAFFATREGYKRAMPGRIIGVSRDARGNPALRMALQTREQHIRREKANSNICTAQVLLANIASLYAVYHGPQELKRIAQRVQRLTALLAAGLKSKGLRRLNRHFFDTLTYEVGERQAAILERARAARVNLRVVDDRRLALSLDETCDAATLATLFEIFLGAGHGLDVAHLDGGAVADGIPAVLQRTSAYLQHPVFNAHHSETEMLRYLRQLEGKDLALNQAMIPLGSCTMKLNASSEMIPITWPEFAELHPFVPREQAEGYRRMIDELEAWLRAITGFDAICMQPNSGAQGEYAGLLAIRRYHQSRGDSQRDICLIPASAHGTNPASAIMASMRVVIVECDPRGNVDLDDLRLKAAEAGDRLSCLMITYPSTHGVYEEGIGEICEVVHRHGGQVYMDGANLNAQVGLARPADIGADVSHMNLHKTFCIPHGGGGPGMGPIGVKRHLAPFVANHPVIRVEGPNPLNDAVSATPWGSASILPISWMYIAMMGPQLADASEVAILSANYLANRLDGAFPVLYRGRNERVAHECILDLRPLKAQTGITEEDVAKRLMDYGFHAPTMSFPVPGTLMVEPTESESKAELDRFVEAMLSIRAEIGKVESGAWPAEDNPLKRAPHTLADVTGIWQRPYEIAEAVTPSEHARAFKYWPAVNRVDNVYGDRNLFCACVPLDDYR
MSQTSLEPLIISIIKLQILQLWLKLIAVGWNLGSNDDELYTELWKACAGPLVEVPRYGERVFYFPQGHMEQLVASTNQGVVDQEIPVFNLPPKILCRVLSVTLKAEHETDEVYAQITLQPEEDQSEPTSLDPPLVEPAKPTVDSFVKILTASDTSTHGGFSVLRKHATECLPSLDMTQPTPTQELVARDLHGYEWRFKHIFRGQPRRHLLTTGWSTFVTSKRLVAGDAFVFLRGETGDLRVGVRRLAKQQSTMPASVISSQSMRLGVLATASHAVTTTTIFVVFYKPRISQFIISVNKYMMAMKNGFSLGMRYRMRFEGEESPERIFTGTIIGSGDLSSQWPASKWRSLQIQWDEPSSIQRPNKVSPWEIEPFSPSALTPTPTQQQSKSKRSRPISEITGSPVASSFLSSFSQSHESNPSVKLLFQDPATERNSNKSVFSSGLQCKITEAPVTSSCRLFGFDLTSKPASATIPHDKQLISVDSNISDSTTKCQDPNSSNSPKEQKQQTSTRSRIKVQMQGTAVGRAVDLTLLRSYDELIKELEKMFEIEGELSPKDKWAIVFTDDEGDRMLVGDDPWNEFCKMAKKLFIYPSDEVKKMRSKSLLGDKGTIVNLESDQRTVHV
MSRAYTGALSYPQKIVIILLNKISSQHLKGDIFGGLTAAVIALPLALAFGVSSGAGAIAGVYGAIFVGFFAALFGGTATQISGPTGPMSVVMALVFTQLIGSHPDTGLVLAFTCVILAGLFQILFGLLKLGKYFVMVPYPVISGFMTGIGIIIILLQISPLLGSAGDSNALAALMNIPNALSQQNTLATVLGVITLLLMIYWPEKWTKIIPAPLFALITLTVISATFFSQQGISVIGEIPTGFPSLSMPSLSLESLSQVSYFAFLLAVLGAIDSLLTSMVADTLTETHHDSDKELIGQGIANTIAGFFGALPGAGATMRTAINIRAGGKTALSGIIHSITLLIVILWAGDYAQYIPHTVLAGMLIKVGLDIIDWRFIFQIKKVGLFSATLMLLVLLLTVFVDLITAVLVGMFIANLVTLDRLTHIQLDNITFKRGDELLSEISSNETNIALTDDIQNNLSKSLANTLLLEIDGPVSFAVSRELSRRFTENLAFTTLVIDLSNAKLIGTTTAIMITDLIDRTKSKEKTVLVITGNEKINQSLDKLSLATLLDKKYQFTNREQALQTLI
MSRCASRFRISSKLSATFRTTHKSHQARNPAGFFVIMGYHKDATKRMIMVYTKVYPMRFGYIALGTPPIQSLDIRKMPKLTDMQIRAWIKSGERFEGRADGNGLYLRYREADKTPTWRFRYKLAGKSRAMLIGSYSELSLSKARETAKELSARVALGYDVAGEKQKRKTEALAKMEAEKNAMRVSELAAEYFERQILPRWKHPDILRRRIDKDINPCIGSMKVEDVKPRHIDDMLKGIVDRGAPTIATDVLRWTRRIFDYGIKRHALEINPCSAFEVADAGGKEAARDRWLTRDELIQLFKAMRTAKGFSRQNEITFKLLLALCVRKMELCAARWEEFDLDGAVWHLPEERSKNGDPIDIPLPSPAVEWLRELHTFSCNSAWVLPARKMQNRMIPHIQESTLPVALAKVRAEMPDVPNFTIHDFRRTARTHLAALGVDPVVAERCLNHRIKGVEGIYNRHQYFDERKAALAQWADLLVALESGKDYNVTPLRRAN
MSRHPARTGEKTFFGHPFQLSTLFHIELWERFSFYGMQGILLIYLYYTADKGGLGIDKTLAGGIVGAYSGSVYLSTILGAWFADRVWGAEKTLFLSGIVVMLGHIVLAAAPGLYGLLIGLIFIALGSGGVKSTASSMVGALYEQDEMRPLRDAGFSIFYIAINIGGFLGPLLTGLLQENIGFHYGFGAAAVGMAFGLWRYSLGRKNLPHPTVPHPLSKGQGKTAAAVGITLIAALATAIKTGLVNLDNFSGILLSTVILAVIAYFARLLTNPRVSSDNKRHIIAYIPLFLTICMFWAVWFQIYTVATVYFDETVNRTIGSFTVPVAWKDSMQSLWVILFSGLMAAMWTKMGRKQPKTPLKFAMAVFVTGASFLGFVPFISSGTPMPIAVFALIVLAITIGELMISPIALSISTKIAPPLFKTQMVALNFLAFSLGFTLGGVLFEKGYQAGDEIGFYRLLFYIGAATGFLLLLLVPKLNKMLEGTD
MSRKILDRYIAKTVLSAIGLVTLMLVGLQIFILFVNQIDDLGRADYGIVQAGVFVLLQMPYQVYLFFPIASLLGCLVGLGVLANHSELVVMRAAGISIGQITGAVLKASLIVILLITSLGETIVPVMAHYANEYKVSALTGGQALLTPRGVWVRNGNDFVSIASVTHENTLRYVNQFRFDNQHNLKLARQISEVKYVNNSWIAYDVKQTEFAEDHTKAHHFDTLPWDVPVKPEILKITGTNPDEMTLHELNRYLREQQRNHQNVANYKFAFFQRITQPLNTMVMMILAIPFIFGPLRSSTMGSKLLVGAMVGFGFHILNRFFGPVSTVFQWPPELAAFSPTLIFSLIGIYLMRRVR
MSRNRVMSIDFQQLPHAGIRSLIPYVPGKSIEELAKEKGITDIIKLASNENPLGCSPLALSVIQTMSSHYIATYPSPWNHPLMSKLASYLKVKPEQLFLSNGSDYLFNILLNCFALHTDRHILTHDYAFSTYAIQANSLQIPINSVPIGHNWEVNITDIVNACNQQTGIIFIANPNNPTGVLIQQEEIKYLLEQIPKSTLLVLDEAYYEFAASQLTVNSLDWLEEHPNLVVTRTFSKIYGMAGLRLGYAIANPSIINILKRVQLPFIVNQVALAAAYAAIDDDDFIQSSLKMNNEGMLQLQAGFNELNIKYLPSSCNFLTFDCEEDSMALYNYLLDNGIIVRPLHAYKMNNFIRVTIGTKEQNSRFLTALKNFYL
